9 molecules from publication PMC11701102, “Structural insights into the interplay between microtubule polymerases, γ-tubulin complexes and their receptors” (Nature Communications, 2025) can be followed below.

The target in series [1] is MBP-Spc72^231-268 (C. albicans) (UniProt Q5AGV5). The series can be described thus: SEC; MBP-CM1 constructs at 100 µM.
Series [2] concerns the molecule itself. The series can be described thus: cryo-EM structure; γ-TuSC/Spc72^1-599/FLAG-Stu2 complex purified via FLAG-Stu2; single particle analysis, γ-TuSC unit within oligomers at 3.6 Å, 14-spoked ring at 8.2 Å.
Series [3] addresses T1, FLAG-Stu2 (C. albicans, full length) (C. albicans, UniProt A0A1D8PTZ8 1-924).
T1 construct: Stu2, C. albicans, full-length Met1 to Glu924; FLAG tag followed by an HRV 3C cleavage site at the 5' end; also called wild-type FLAG-Stu2; source: Sf21 insect cells; not shown: FLAG, N-terminal, kept
T1 sequence (looked up): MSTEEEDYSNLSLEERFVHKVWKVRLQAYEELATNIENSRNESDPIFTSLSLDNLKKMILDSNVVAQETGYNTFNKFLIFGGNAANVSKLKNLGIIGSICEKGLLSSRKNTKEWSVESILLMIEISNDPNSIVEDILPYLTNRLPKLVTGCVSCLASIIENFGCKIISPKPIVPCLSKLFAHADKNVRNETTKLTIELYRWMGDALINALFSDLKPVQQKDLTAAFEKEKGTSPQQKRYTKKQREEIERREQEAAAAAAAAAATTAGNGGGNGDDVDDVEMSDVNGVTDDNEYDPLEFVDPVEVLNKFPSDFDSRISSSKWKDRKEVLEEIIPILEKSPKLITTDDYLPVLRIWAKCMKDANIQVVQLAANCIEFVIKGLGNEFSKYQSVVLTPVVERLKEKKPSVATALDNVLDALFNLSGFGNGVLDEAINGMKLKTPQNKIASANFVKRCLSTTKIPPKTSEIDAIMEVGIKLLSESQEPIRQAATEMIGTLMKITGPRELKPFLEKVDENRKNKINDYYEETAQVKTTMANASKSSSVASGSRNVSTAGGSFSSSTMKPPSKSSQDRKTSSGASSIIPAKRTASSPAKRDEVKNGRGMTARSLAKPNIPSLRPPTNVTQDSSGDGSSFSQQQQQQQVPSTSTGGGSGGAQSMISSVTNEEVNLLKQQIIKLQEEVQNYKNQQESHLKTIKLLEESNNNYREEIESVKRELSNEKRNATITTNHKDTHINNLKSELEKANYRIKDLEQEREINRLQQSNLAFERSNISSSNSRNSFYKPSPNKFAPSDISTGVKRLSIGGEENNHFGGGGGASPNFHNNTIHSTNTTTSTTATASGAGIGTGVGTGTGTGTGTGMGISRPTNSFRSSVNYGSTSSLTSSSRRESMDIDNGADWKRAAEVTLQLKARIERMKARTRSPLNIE
The series can be described thus: pull-down; FLAG-Stu2 variants from insect cell lysate on anti-FLAG M2 gel, washed, then 20 µg purified Spc72 fragments from E. coli added for 1 h; 200 mM NaCl; eluted with 3xFLAG peptide, Western blot; also called IP or co-IP. Particulars: both partners purified. Background: A western blot detects proteins with antibodies after separation by electrophoresis.

For series [4], the target named is T2, FLAG-Stu2^∆666-768 (coiled-coil deletion mutant) (C. albicans, UniProt A0A1D8PTZ8 1-924, ∆666-768).
T2 construct: Stu2, C. albicans (Met1 to Glu924), coiled-coil region 666-768 deleted
T2 sequence: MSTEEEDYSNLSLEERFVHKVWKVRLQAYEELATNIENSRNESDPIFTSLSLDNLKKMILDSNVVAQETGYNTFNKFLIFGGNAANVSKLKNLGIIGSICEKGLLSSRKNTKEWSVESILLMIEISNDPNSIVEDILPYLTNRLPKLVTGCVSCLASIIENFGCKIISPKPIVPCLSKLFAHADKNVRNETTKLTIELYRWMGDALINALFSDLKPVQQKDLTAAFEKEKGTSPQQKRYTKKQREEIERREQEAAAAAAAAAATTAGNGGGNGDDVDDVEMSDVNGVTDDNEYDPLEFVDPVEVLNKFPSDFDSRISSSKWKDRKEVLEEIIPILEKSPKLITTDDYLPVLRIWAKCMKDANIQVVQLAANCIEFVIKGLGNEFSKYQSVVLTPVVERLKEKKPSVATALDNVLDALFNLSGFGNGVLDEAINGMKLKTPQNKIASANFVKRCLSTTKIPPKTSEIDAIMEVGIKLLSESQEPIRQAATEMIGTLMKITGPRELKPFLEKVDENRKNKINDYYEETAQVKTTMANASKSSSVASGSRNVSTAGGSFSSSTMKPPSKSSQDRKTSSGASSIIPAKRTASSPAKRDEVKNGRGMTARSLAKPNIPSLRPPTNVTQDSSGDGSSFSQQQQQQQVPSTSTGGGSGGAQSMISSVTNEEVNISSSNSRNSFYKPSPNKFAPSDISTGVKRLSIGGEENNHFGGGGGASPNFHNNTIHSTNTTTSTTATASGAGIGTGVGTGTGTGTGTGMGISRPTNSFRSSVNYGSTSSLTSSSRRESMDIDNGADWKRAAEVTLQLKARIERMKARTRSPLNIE
The series is described as above. As to conditions: both partners purified.

Series [5] has as its target T3, FLAG-tagged γ-TuSC (FLAG-Spc98, His-Spc97, γ-tubulin) (C. albicans, UniProt A0A1D8PS42 1-785; Q59PZ2 1-871; O93807 1-502).
T3 construct: Spc98, C. albicans; Spc97, C. albicans; γ-tubulin (Tub4), C. albicans; also called FLAG-γ-TuSC; copies: + +
The series can be described thus: pull-down; FLAG-γ-TuSC (FLAG-Spc98) from insect cell lysate on anti-FLAG M2 gel, washed, then 20 µg purified His-Spc72 added for 1 h; 150 mM NaCl; eluted with 3xFLAG peptide, Western blot; called co-IP in the text. Particulars: both partners purified.

Series [6] concerns the molecule itself. The series can be described thus: SEC-MALS + other: mass photometry; FLAG-Stu2 (10 µM) and His-Spc72^291-599 (60 µM) alone or mixed 1:1 (vol), Superdex 200 Increase 5/150, 50 mM Tris-HCl pH 7.5, 150 mM NaCl, room temperature; mass photometry below 40 nM. For orientation: In gel filtration, larger molecules generally elute earlier.
In series [7] the target is GST-CM1^231-268 (GST-Spc72^231-268) (C. albicans) (UniProt Q5AGV5). The series can be described thus: mass photometry; MBP-CM1 and GST-CM1 constructs diluted to below 40 nM in SEC buffer; for the GST constructs: GST-mediated dimers to tetramers.
Series [8] concerns the target γ-tubulin small complex (γ-TuSC) from C. albicans: His-Spc97, His-Spc98, γ-tubulin (Tub4) (C. albicans, UniProt Q59PZ2 1-871; A0A1D8PS42 1-785; O93807 1-502). The series can be described thus: MST.

The molecule “MBP-Spc72^231-268 (from UniProt Q5AGV5 231-268) (domain or fragment)” showed a stoichiometry N in series [1] of 2.

B1: γ-tubulin (Tub4), C. albicans (natural protein, UniProt O93807 1-502, looked up)
chain: MPGETITLQVGQCGNQVGLQYWQQLATEHGIQSDGSSTPYPKDINDLQLQELNNSGSSPQSYPQQTKPNGKYRNDHPELFFTLSDSNTYTPRSILIDMEPSVIAKSTSALPMFNPRNVHLSNQGNGAANNWINGYKYGTEEEETLLNLIDREVDKCDNLSNFQLFHSVAGGTGSGVGSKMLEVISDRYGHKKLLNTFSIFPSNEDTSDVVVQPYNTILTLKRLIDYSDATFVFHNDSLNRIENILFNNNSNIQHDDNDLFLGANKLIALVSASVSNPLRFPGYMYSSMESIVSNLIPTPDLKFLTSSIAPFSTQKHNYLNEYDMLLELSNDRYKTNRVGGDTSYISMLNYLIGYNLDQREIRKGILKSQQRISFVPWVARSVLVVHGKKSPYLKNTNLEGIQVTNNTSMIDVFTKILKQFDLLIKRKAYLNRYYSSVEEENEVMEMFNESRESVKSIIDEYKACKEITYLDDDDEDDLEDGDGGGGGNGNGYNNIDDADMGI
notes: γ-tubulin (Tub4), C. albicans; Subunit of m1, written alone for the contacts in the cryo-EM structure
For B1, the binding result in series [2] is given as “binds”.

B2: His-GFP-Spc72^430-480 (domain or fragment, C. albicans, UniProt Q5AGV5 430-480, looked up)
chain: TSSEYGVSTNNVANKNDLEGYIHIIEDLIKTVDELELTCENYKANKNELQN
notes: Spc72, C. albicans, codons 430-480; source: E. coli BL21 CodonPlus-RIL; not shown: GFP, N-terminal, kept
Take B2: the binding result in series [3] was “binds”.

B3: His-Spc72^1-599 (C. albicans), from E. coli (domain or fragment, UniProt Q5AGV5 1-599, looked up)
chain: MSNLSINESNDNSNVSILSNKSGAQSSTNSSPNLIVFKQPEDLSIQLQQQQQGTQEDTPEEEEEEEEEMEQITQLEVQQENQPDTLSSSPFISRPNSPLDDIIRPQGTSSPSLTIRDSYSSQVDINISNLHKSLNEMRLSTDPVDNNNNNNKVNKNNPTNSDISNDDIITIDNLTPSRIQPKNISPWRQFRPTLRGSPESTPRSLFQNKPNLKFNNGLSPTNGSRDMVTNNIATTTKSREEELNKRIVNYKIQLKLMKNFLQELIDRNNLDPHEFHTLLRRNNNNIMNNENNPLSTSLSQTSTLEIQHQNLQIELDEALELNKQLYNKIETANKEISDKDLQISNYESRINLINYSVDELIYILINEYDKNNYSHGGSNTTSPGKETLQQSISAQLEVKLNVLKLELMTRLDQSHQYNNKPHDLFTPPYTSSEYGVSTNNVANKNDLEGYIHIIEDLIKTVDELELTCENYKANKNELQNQLVEQINESIRIKNNFQIMSNKFNQLRQSLSEKENDKNLDEFSKNNHQQQQQQQIQQLEQKLIEYEKCITILQDELDQYKQPSDTTNTTNNNNNNNNNNNRSSYSSYNNHRNSSLNELN
notes: source: E. coli BL21 CodonPlus-RIL, purified (Ni-TED); not shown: His6, N-terminal, kept
B3: the binding result in series [3] and in series [4] was “binds” in each case.

B4: His-Spc72^1-599,3R (L243R/I247R/L254R), from E. coli (domain or fragment)
chain: MSNLSINESNDNSNVSILSNKSGAQSSTNSSPNLIVFKQPEDLSIQLQQQQQGTQEDTPEEEEEEEEEMEQITQLEVQQENQPDTLSSSPFISRPNSPLDDIIRPQGTSSPSLTIRDSYSSQVDINISNLHKSLNEMRLSTDPVDNNNNNNKVNKNNPTNSDISNDDIITIDNLTPSRIQPKNISPWRQFRPTLRGSPESTPRSLFQNKPNLKFNNGLSPTNGSRDMVTNNIATTTKSREEERNKRRVNYKIQRKLMKNFLQELIDRNNLDPHEFHTLLRRNNNNIMNNENNPLSTSLSQTSTLEIQHQNLQIELDEALELNKQLYNKIETANKEISDKDLQISNYESRINLINYSVDELIYILINEYDKNNYSHGGSNTTSPGKETLQQSISAQLEVKLNVLKLELMTRLDQSHQYNNKPHDLFTPPYTSSEYGVSTNNVANKNDLEGYIHIIEDLIKTVDELELTCENYKANKNELQNQLVEQINESIRIKNNFQIMSNKFNQLRQSLSEKENDKNLDEFSKNNHQQQQQQQIQQLEQKLIEYEKCITILQDELDQYKQPSDTTNTTNNNNNNNNNNNRSSYSSYNNHRNSSLNELN
notes: The cloning of the E. coli construct of this mutant is not described; also called Spc72^3R mutant; source: E. coli BL21 CodonPlus-RIL, purified (Ni-TED)
With B4, in series [5], the “fold lower binding efficiency compared to Spc72^1-599” value came out at 1.7 fold.

B5: His-Spc72^291-599 (domain or fragment, C. albicans, UniProt Q5AGV5 291-599, looked up)
chain: NNPLSTSLSQTSTLEIQHQNLQIELDEALELNKQLYNKIETANKEISDKDLQISNYESRINLINYSVDELIYILINEYDKNNYSHGGSNTTSPGKETLQQSISAQLEVKLNVLKLELMTRLDQSHQYNNKPHDLFTPPYTSSEYGVSTNNVANKNDLEGYIHIIEDLIKTVDELELTCENYKANKNELQNQLVEQINESIRIKNNFQIMSNKFNQLRQSLSEKENDKNLDEFSKNNHQQQQQQQIQQLEQKLIEYEKCITILQDELDQYKQPSDTTNTTNNNNNNNNNNNRSSYSSYNNHRNSSLNELN
notes: source: E. coli, purified (Ni-TED for pull-downs; Ni-NTA and SEC for HX-MS, SEC-MALS and mass photometry); not shown: His6, N-terminal, kept
Regarding B5, in series [6], the “stoichiometry N” value is 2.

B6: GST-CM1^231-268 (GST-Spc72^231-268) (domain or fragment)
chain: NIATTTKSREEELNKRIVNYKIQLKLMKNFLQELIDRN
With B6, the stoichiometry N in series [7] was found to be 4. In series [8], this molecule registered a dissociation constant (Kd) of 105 nM.

B7: His-GFP-Spc72^300-350 (domain or fragment, C. albicans, UniProt Q5AGV5 300-350, looked up)
chain: QTSTLEIQHQNLQIELDEALELNKQLYNKIETANKEISDKDLQISNYESRI
notes: Spc72, C. albicans, codons 300-350; source: E. coli BL21 CodonPlus-RIL; not shown: GFP, N-terminal, kept
Consider B7, for which the binding result in series [3] is reported as “binds”.

B8: His-GFP-Spc72^429-599 (domain or fragment, C. albicans, UniProt Q5AGV5 429-599, looked up)
chain: YTSSEYGVSTNNVANKNDLEGYIHIIEDLIKTVDELELTCENYKANKNELQNQLVEQINESIRIKNNFQIMSNKFNQLRQSLSEKENDKNLDEFSKNNHQQQQQQQIQQLEQKLIEYEKCITILQDELDQYKQPSDTTNTTNNNNNNNNNNNRSSYSSYNNHRNSSLNELN
notes: also called second coiled-coil module; source: E. coli BL21 CodonPlus-RIL, purified (Ni-TED); not shown: GFP, N-terminal, kept
On to B8, for which the binding result in series [3] is “binds”.

As usually defined, the stoichiometry N is a count of units in the complex or per binding partner. A word on the Kd: it is a measure of binding affinity in units of concentration. High values mean weaker binding, low ones tighter binding.
